Test results published in US20260167699A1 (Chugai, published 2026).

B1: GpH7-A5/GpH7-B3 variant Y296_10E/GpL16-k0 (antibody, human IgG1, kappa)
heavy 1: not shown
heavy 2: not shown
light: DIVMTQSPLSLPVTPGEPASISCQASESLVHSNRNTYLHWYLQKPGQSPQLLIYKVSNRFSGVPDRFSGSGSGTDFTLKISRVEAEDVGVYYCSQNTHVPPTFGQGTKVEIERTVAAPSVFIFPPSDEQLKSGTASVVCLLNNFYPREAKVQWKVDNALQSGNSQESVTEQDSKDSTYSLSSTLTLSKADYEKHKVYACEVTHQGLSSPVTKSFNRGEC
notes: copies: 1 + 1 + 2
B2: GpH7-A5/GpH7-B3 variant Y300_03V/GpL16-k0 (antibody, human IgG1, kappa)
heavy 1: not shown
heavy 2: not shown
light: DIVMTQSPLSLPVTPGEPASISCQASESLVHSNRNTYLHWYLQKPGQSPQLLIYKVSNRFSGVPDRFSGSGSGTDFTLKISRVEAEDVGVYYCSQNTHVPPTFGQGTKVEIERTVAAPSVFIFPPSDEQLKSGTASVVCLLNNFYPREAKVQWKVDNALQSGNSQESVTEQDSKDSTYSLSSTLTLSKADYEKHKVYACEVTHQGLSSPVTKSFNRGEC
notes: copies: 1 + 1 + 2
B3: GpH7-A5/GpH7-B3 variant Y300_13S/GpL16-k0 (antibody, human IgG1, kappa)
heavy 1: not shown
heavy 2: not shown
light: DIVMTQSPLSLPVTPGEPASISCQASESLVHSNRNTYLHWYLQKPGQSPQLLIYKVSNRFSGVPDRFSGSGSGTDFTLKISRVEAEDVGVYYCSQNTHVPPTFGQGTKVEIERTVAAPSVFIFPPSDEQLKSGTASVVCLLNNFYPREAKVQWKVDNALQSGNSQESVTEQDSKDSTYSLSSTLTLSKADYEKHKVYACEVTHQGLSSPVTKSFNRGEC
notes: copies: 1 + 1 + 2
B4: GpH7-A5/GpH7-B3 variant Y296_11K/GpL16-k0 (antibody, human IgG1, kappa)
heavy 1: not shown
heavy 2: not shown
light: DIVMTQSPLSLPVTPGEPASISCQASESLVHSNRNTYLHWYLQKPGQSPQLLIYKVSNRFSGVPDRFSGSGSGTDFTLKISRVEAEDVGVYYCSQNTHVPPTFGQGTKVEIERTVAAPSVFIFPPSDEQLKSGTASVVCLLNNFYPREAKVQWKVDNALQSGNSQESVTEQDSKDSTYSLSSTLTLSKADYEKHKVYACEVTHQGLSSPVTKSFNRGEC
notes: copies: 1 + 1 + 2
B5: GpH7-A5/GpH7-B3 variant Y300_18N/GpL16-k0 (antibody, human IgG1, kappa)
heavy 1: not shown
heavy 2: not shown
light: DIVMTQSPLSLPVTPGEPASISCQASESLVHSNRNTYLHWYLQKPGQSPQLLIYKVSNRFSGVPDRFSGSGSGTDFTLKISRVEAEDVGVYYCSQNTHVPPTFGQGTKVEIERTVAAPSVFIFPPSDEQLKSGTASVVCLLNNFYPREAKVQWKVDNALQSGNSQESVTEQDSKDSTYSLSSTLTLSKADYEKHKVYACEVTHQGLSSPVTKSFNRGEC
notes: copies: 1 + 1 + 2
B6: GpH7-A5/GpH7-B3 variant Y300_04F/GpL16-k0 (antibody, human IgG1, kappa)
heavy 1: not shown
heavy 2: not shown
light: DIVMTQSPLSLPVTPGEPASISCQASESLVHSNRNTYLHWYLQKPGQSPQLLIYKVSNRFSGVPDRFSGSGSGTDFTLKISRVEAEDVGVYYCSQNTHVPPTFGQGTKVEIERTVAAPSVFIFPPSDEQLKSGTASVVCLLNNFYPREAKVQWKVDNALQSGNSQESVTEQDSKDSTYSLSSTLTLSKADYEKHKVYACEVTHQGLSSPVTKSFNRGEC
notes: copies: 1 + 1 + 2
B7: GpH7-A5/GpH7-B3 variant Y300_01G/GpL16-k0 (antibody, human IgG1, kappa)
heavy 1: not shown
heavy 2: not shown
light: DIVMTQSPLSLPVTPGEPASISCQASESLVHSNRNTYLHWYLQKPGQSPQLLIYKVSNRFSGVPDRFSGSGSGTDFTLKISRVEAEDVGVYYCSQNTHVPPTFGQGTKVEIERTVAAPSVFIFPPSDEQLKSGTASVVCLLNNFYPREAKVQWKVDNALQSGNSQESVTEQDSKDSTYSLSSTLTLSKADYEKHKVYACEVTHQGLSSPVTKSFNRGEC
notes: copies: 1 + 1 + 2
B8: GpH7-A5/GpH7-B3 variant Y300_16H/GpL16-k0 (antibody, human IgG1, kappa)
heavy 1: not shown
heavy 2: not shown
light: DIVMTQSPLSLPVTPGEPASISCQASESLVHSNRNTYLHWYLQKPGQSPQLLIYKVSNRFSGVPDRFSGSGSGTDFTLKISRVEAEDVGVYYCSQNTHVPPTFGQGTKVEIERTVAAPSVFIFPPSDEQLKSGTASVVCLLNNFYPREAKVQWKVDNALQSGNSQESVTEQDSKDSTYSLSSTLTLSKADYEKHKVYACEVTHQGLSSPVTKSFNRGEC
notes: copies: 1 + 1 + 2
B9: GpH7-A5/GpH7-B3 variant Y300_07I/GpL16-k0 (antibody, human IgG1, kappa)
heavy 1: not shown
heavy 2: not shown
light: DIVMTQSPLSLPVTPGEPASISCQASESLVHSNRNTYLHWYLQKPGQSPQLLIYKVSNRFSGVPDRFSGSGSGTDFTLKISRVEAEDVGVYYCSQNTHVPPTFGQGTKVEIERTVAAPSVFIFPPSDEQLKSGTASVVCLLNNFYPREAKVQWKVDNALQSGNSQESVTEQDSKDSTYSLSSTLTLSKADYEKHKVYACEVTHQGLSSPVTKSFNRGEC
notes: copies: 1 + 1 + 2
B10: GpH7-A5/GpH7-B3 variant Y296_14T/GpL16-k0 (antibody, human IgG1, kappa)
heavy 1: not shown
heavy 2: not shown
light: DIVMTQSPLSLPVTPGEPASISCQASESLVHSNRNTYLHWYLQKPGQSPQLLIYKVSNRFSGVPDRFSGSGSGTDFTLKISRVEAEDVGVYYCSQNTHVPPTFGQGTKVEIERTVAAPSVFIFPPSDEQLKSGTASVVCLLNNFYPREAKVQWKVDNALQSGNSQESVTEQDSKDSTYSLSSTLTLSKADYEKHKVYACEVTHQGLSSPVTKSFNRGEC
notes: copies: 1 + 1 + 2
B11: GpH7-A5/GpH7-B3 variant Y300_14T/GpL16-k0 (antibody, human IgG1, kappa)
heavy 1: not shown
heavy 2: not shown
light: DIVMTQSPLSLPVTPGEPASISCQASESLVHSNRNTYLHWYLQKPGQSPQLLIYKVSNRFSGVPDRFSGSGSGTDFTLKISRVEAEDVGVYYCSQNTHVPPTFGQGTKVEIERTVAAPSVFIFPPSDEQLKSGTASVVCLLNNFYPREAKVQWKVDNALQSGNSQESVTEQDSKDSTYSLSSTLTLSKADYEKHKVYACEVTHQGLSSPVTKSFNRGEC
notes: copies: 1 + 1 + 2

molecular target: T1, FcγRIIIa (human, UniProt P08637 17-208); assay: SPR (Biacore);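 note: antibody variants captured on an SPR sensor chip, with FcγRIIIa passed over as analyte in HBS-EP+ buffer at 25 °C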
T1 construct: extracellular domain; also called 3a; FcγRIIIa extracellular domain
T1 sequence (P08637 other isoform, or with tags, fused parts or gaps): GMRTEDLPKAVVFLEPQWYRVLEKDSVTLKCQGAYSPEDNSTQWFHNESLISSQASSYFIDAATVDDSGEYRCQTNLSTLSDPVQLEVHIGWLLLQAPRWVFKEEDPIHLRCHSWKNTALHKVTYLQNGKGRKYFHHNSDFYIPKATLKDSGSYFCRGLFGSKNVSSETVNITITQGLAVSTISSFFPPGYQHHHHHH

In order of rising “He/Con 3a” value:
1. B4  53.3 % of GpH7-A5/GpH7-B3/GpL16-k0
2. B10  60.7 % of GpH7-A5/GpH7-B3/GpL16-k0
3. B1  76.8 % of GpH7-A5/GpH7-B3/GpL16-k0
4. B3  80.3 % of GpH7-A5/GpH7-B3/GpL16-k0
5. B2  83.8 % of GpH7-A5/GpH7-B3/GpL16-k0
6. B7  88.6 % of GpH7-A5/GpH7-B3/GpL16-k0
7. B11  92.8 % of GpH7-A5/GpH7-B3/GpL16-k0
8. B5  96 % of GpH7-A5/GpH7-B3/GpL16-k0
9. B6  100 % of GpH7-A5/GpH7-B3/GpL16-k0
10. B8  102 % of GpH7-A5/GpH7-B3/GpL16-k0
11. B9  103 % of GpH7-A5/GpH7-B3/GpL16-k0
